Experimental data reported in patent US20240117018A1.

How the values were obtained:
Assay in all cases: cell-based or functional assay
[1] = molecular target: Env of HIV-1 pseudovirus 1006_11_C3_1601 (HIV-1)
[2] = molecular target: Env of HIV-1 pseudovirus 6535.3 (HIV-1)
[3] = molecular target: Env of HIV-1 pseudovirus CAP210.2.00.E8 (HIV-1)
[4] = molecular target: Env of HIV-1 pseudovirus CNE53 (HIV-1)
[5] = molecular target: Env of HIV-1 pseudovirus CNE58 (HIV-1)
[6] = molecular target: Env of HIV-1 pseudovirus Ce1086_B2 (HIV-1)
[7] = molecular target: Env of HIV-1 pseudovirus Ce703010054_2A2 (HIV-1)
[8] = molecular target: Env of HIV-1 pseudovirus Q461.e2 (HIV-1)
[9] = molecular target: Env of HIV-1 pseudovirus Q842.d12 (HIV-1)
[10] = molecular target: Env of HIV-1 pseudovirus REJO4541.67 (HIV-1)
[11] = molecular target: Env of HIV-1 pseudovirus RHPA4259.7 (HIV-1)
[12] = molecular target: Env of HIV-1 pseudovirus T250-4 (HIV-1)
[13] = molecular target: Env of HIV-1 pseudovirus ZM249M.PL1 (HIV-1)
[14] = molecular target: Env of HIV-1 pseudovirus ZM53M.PB12 (HIV-1)
[15] = molecular target: MuLV envelope (negative control pseudovirus) (MuLV)

Substance	IC50 [1]	IC80 [1]	IC50 [2]	IC80 [2]	IC50 [3]	IC80 [3]	IC50 [4]	IC80 [4]	IC50 [5]	IC80 [5]	IC50 [6]	IC80 [6]	IC50 [7]	IC80 [7]	IC50 [8]	IC80 [8]	IC50 [9]	IC80 [9]	IC50 [10]	IC80 [10]	also measured
10-1074 (antibody)	0.003 µg/mL	0.013 µg/mL	0.014 µg/mL	0.026 µg/mL	> 50 µg/mL	> 50 µg/mL	0.039 µg/mL	0.141 µg/mL	0.267 µg/mL	0.968 µg/mL	> 50 µg/mL	> 50 µg/mL	> 50 µg/mL	> 50 µg/mL	> 50 µg/mL	> 50 µg/mL	> 50 µg/mL	> 50 µg/mL	> 50 µg/mL	> 50 µg/mL	IC50 [11]: 0.021 µg/mL; IC80 [11]: 0.118 µg/mL; IC50 [12]: < 0.001 µg/mL; IC80 [12]: 0.005 µg/mL; IC50 [13]: > 50 µg/mL; IC80 [13]: > 50 µg/mL; IC50 [14]: > 50 µg/mL; IC80 [14]: > 50 µg/mL
10E8 (antibody)	0.172 µg/mL	3 µg/mL	0.081 µg/mL	1.32 µg/mL	0.798 µg/mL	3.89 µg/mL	0.326 µg/mL	1.92 µg/mL	1.29 µg/mL	8.27 µg/mL	1.16 µg/mL	6.93 µg/mL	2.3 µg/mL	8.58 µg/mL	2.11 µg/mL	> 10 µg/mL	4.19 µg/mL	> 10 µg/mL	0.203 µg/mL	1.69 µg/mL	IC50 [11]: 0.728 µg/mL; IC80 [11]: 5.28 µg/mL; IC50 [12]: 1.35 µg/mL; IC80 [12]: 8.13 µg/mL; IC50 [13]: 1.51 µg/mL; IC80 [13]: 6.29 µg/mL; IC50 [14]: 3.98 µg/mL; IC80 [14]: > 10 µg/mL
N49P7 (antibody)	–	–	–	–	–	–	–	–	–	–	–	–	–	–	–	–	–	–	–	–	IC50 (neutralisation, TZM.bl cells) [15]: > 50 µg/mL; IC80 (neutralisation, TZM.bl cells) [15]: > 50 µg/mL; MPI [15]: 9
N49P7.1 (antibody)	–	–	–	–	–	–	–	–	–	–	–	–	–	–	–	–	–	–	–	–	IC50 (neutralisation, TZM.bl cells) [15]: > 50 µg/mL; IC80 (neutralisation, TZM.bl cells) [15]: > 50 µg/mL; MPI [15]: 4
